The source of these data is the supplement of paper PMC11316812.

± gives the standard deviation of the averaged measurements.

The subject of one data set is MCF7. The data set can be described thus: percentage of EdU-negative (G0-arrested) nuclei per well, 72 h; higher = more G0 arrest. The following applies: reference: sequence is the full UniProt precursor, the tested protein was the secreted form or ectodomain.
In another data set the test system is hTERT-HMEC. Described as above. The following applies: reference: sequence is the full UniProt precursor, the tested protein was the secreted form or ectodomain.
[1] abbreviates: protein concentration 0.0065 µM.
[2] abbreviates: protein concentration 0.03125 µM.
The mark [3] stands for this setting: protein concentration 0.3125 µM.
Where [4] appears, read: protein concentration 0.0225 µM.
[5] abbreviates: protein concentration 0.0125 µM.
Where [6] appears, read: protein concentration 0.0105714 µM.
Where [7] appears, read: protein concentration 0.105714 µM.
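Note: secreted proteins added to cultured cells, EdU pulse at the end, nuclei found by Hoechst imaging, EdU status from nuclear versus surrounding ring intensity ratio, PBS as neutral control.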

Turning to “MVGTKAWVFSFLVLEVTSVLGRQTMLTQSVRRVQPGKKNPSIFAKPADTLESPGEWTTWFNIDYPGGKGDYERLDAIRFYYGDRVCARPLRLEARTTDWTPAGSTGQVVHGSPREGFWCLNREQRPGQNCSNYTVRFLCPPGSLRRDTERIWSPWSPWSKCSAACGQTGVQTRTRICLAEMVSLCSEASEEGQHCMGQDCTACDLTCPMGQVNADCDACMCQDFMLHGAVSLPGGAPASGAAIYLLTKTPKLLTQTDSDGRFRIPGLCPDGKSILKITKVKFAPIVLTMPKTSLKAATIKAEFVRAETPYMVMNPETKARRAGQSVSLCCKATGKPRPDKYFWYHNDTLLDPSLYKHESKLVLRKLQQHQAGEYFCKAQSDAGAVKSKVAQLIVIASDETPCNPVPESYLIRLPHDCFQNATNSFYYDVGRCPVKTCAGQQDNGIRCRDAVQNCCGISKTEEREIQCSGYTLPTKVAKECSCQRCTETRSIVRGRVSAADNGEPMRFGHVYMGNSRVSMTGYKGTFTLHVPQDTERLVLTFVDRLQKFVNTTKVLPFNKKGSAVFHEIKMLRRKKPITLEAMETNIIPLGEVVGEDPMAELEIPSRSFYRQNGEPYIGKVKASVTFLDPRNISTATAAQTDLNFINDEGDTFPLRTYGMFSVDFRDEVTSEPLNAGKVKVHLDSTQVKMPEHISTVKLWSLNPDTGLWEEEGDFKFENQRRNKREDRTFLVGNLEIRERRLFNLDVPESRRCFVKVRAYRSERFLPSEQIQGVVISVINLEPRTGFLSNPRAWGRFDSVITGPNGACVPAFCDDQSPDAYSAYVLASLAGEELQAVESSPKFNPNAIGVPQPYLNKLNYRRTDHEDPRVKKTAFQISMAKPRPNSAEESNGPIYAFENLRACEEAPPSAAHFRFYQIEGDRYDYNTVPFNEDDPMSWTEDYLAWWPKPMEFRACYIKVKIVGPLEVNVRSRNMGGTHRQTVGKLYGIRDVRSTRDRDQPNVSAACLEFKCSGMLYDQDRVDRTLVKVIPQGSCRRASVNPMLHEYLVNHLPLAVNNDTSEYTMLAPLDPLGHNYGIYTVTDQDPRTAKEIALGRCFDGTSDGSSRIMKSNVGVALTFNCVERQVGRQSAFQYLQSTPAQSPAAGTVQGRVPSRRQQRASRGGQRQGGVVASLRFPRVAQQPLIN”, the “percentage of EdU-negative” value with MCF7 (setting [1]) is 25.3 ± 0.34%; with MCF7 (protein concentration 0.065 µM), 25.9 ± 2%; in the data set on hTERT-HMEC (setting [1]), 4.85 ± 0.48%; with hTERT-HMEC (protein concentration 0.065 µM) it was 4.77 ± 1%.

As for “MVKQIESKTAFQEALDAAGDKLVVVDFSATWCGPCKMIKPFFHSLSEKYSNVIFLEVDVDDCQDVASECEVKCMPTFQFFKKGQKVGEFSGANKEKLEATINELV”, the “percentage of EdU-negative” value worked out at 25.2 ± 1.2% in the data set on MCF7 (setting [2]), 23.8 ± 1.9% with MCF7 (setting [3]), 4.86 ± 0.3% with hTERT-HMEC (setting [2]) and 4.9 ± 0.23% in the data set on hTERT-HMEC (setting [3]).

“MVLAAPLLLGFLLLALELRPRGEAAEGPAAAAAAAAAAAAAGVGGERSSRPAPSVAPEPDGCPVCVWRQHSRELRLESIKSQILSKLRLKEAPNISREVVKQLLPKAPPLQQILDLHDFQGDALQPEDFLEEDEYHATTETVISMAQETDPAVQTDGSPLCCHFHFSPKVMFTKVLKAQLWVYLRPVPRPATVYLQILRLKPLTGEGTAGGGGGGRRHIRIRSLKIELHSRSGHWQSIDFKQVLHSWFRQPQSNWGIEINAFDPSGTDLAVTSLGPGAEGLHPFMELRVLENTKRSRRNLGLDCDEHSSESRCCRYPLTVDFEAFGWDWIIAPKRYKANYCSGQCEYMFMQKYPHTHLVQQANPRGSAGPCCTPTKMSPINMLYFNDKQQIIYGKIPGMVVDRCGCS”: the “percentage of EdU-negative” value is 24.2 ± 2.7% in the data set on MCF7 (setting [2]), 26.2 ± 3.2% in the data set with MCF7 (setting [3]), 4.52 ± 0.24% in the data set on hTERT-HMEC (setting [2]) and 5.2 ± 0.9% with hTERT-HMEC (setting [3]).

For the sequence “MVLAQGLLSMALLALCWERSLAGAEETIPLQTLRCYNDYTSHITCRWADTQDAQRLVNVTLIRRVNEDLLEPVSCDLSDDMPWSACPHPRCVPRRCVIPCQSFVVTDVDYFSFQPDRPLGTRLTVTLTQHVQPPEPRDLQISTDQDHFLLTWSVALGSPQSHWLSPGDLEFEVVYKRLQDSWEDAAILLSNTSQATLGPEHLMPSSTYVARVRTRLAPGSRLSGRPSKWSPEVCWDSQPGDEAQPQNLECFFDGAAVLSCSWEVRKEVASSVSFGLFYKPSPDAGEEECSPVLREGLGSLHTRHHCQIPVPDPATHGQYIVSVQPRRAEKHIKSSVNIQMAPPSLNVTKDGDSYSLRWETMKMRYEHIDHTFEIQYRKDTATWKDSKTETLQNAHSMALPALEPSTRYWARVRVRTSRTGYNGIWSEWSEARSWDTESVLPMWVLALIVIFLTIAVLLALRFCGIYGYRLRRKWEEKIPNPSKSHLFQNGSAELWPPGSMSAFTSGSPPHQGPWGSRFPELEGVFPVGFGDSEVSPLTIEDPKHVCDPPSGPDTTPAASDLPTEQPPSPQPGPPAASHTPEKQASSFDFNGPYLGPPHSRSLPDILGQPEPPQEGGSQKSPPPGSLEYLCLPAGGQVQLVPLAQAMGPGQAVEVERRPSQGAAGSPSLESGGGPAPPALGPRVGGQDQKDSPVAIPMSSGDTEDPGVASGYVSSADLVFTPNSGASSVSLVPSLGLPSDQTPSLCPGLASGPPGAPGPVKSGFEGYVELPPIEGRSPRSPRNNPVPPEAKSPVLNPGERPADVSPTSPQPEGLLVLQQVGDYCFLPGLGPGPLSLRSKPSSPGPGPEIKNLDQAFQVKKPPGQAVPQVPVIQLFKALKQQDYLSLPPWEVNKPGEVC”, the “percentage of EdU-negative” value in the data set with MCF7 (setting [4]) is 23.9 ± 0.89%; in the data set on MCF7 (protein concentration 0.225 µM), 26.4 ± 2.5%; in the data set on hTERT-HMEC (setting [4]), 4.92 ± 0.4%; in the data set with hTERT-HMEC (protein concentration 0.225 µM) it was 8.11 ± 1.6%.

“MVLCFPLLLLLLVLWGPVCPLHAWPKRLTKAHWFEIQHIQPSPLQCNRAMSGINNYTQHCKHQNTFLHDSFQNVAAVCDLLSIVCKNRRHNCHQSSKPVNMTDCRLTSGKYPQCRYSAAAQYKFFIVACDPPQKSDPPYKLVPVHLDSIL”: the “percentage of EdU-negative” value stood at 25.2 ± 2.5% with MCF7 (setting [4]), 25 ± 4.7% in the data set with MCF7 (protein concentration 0.225 µM), 4.8 ± 0.73% in the data set with hTERT-HMEC (setting [4]) and 7.49 ± 1.4% with hTERT-HMEC (protein concentration 0.225 µM).

Take “MVLCWLLLLVMALPPGTTGVKDCVFCELTDSMQCPGTYMHCGDDEDCFTGHGVAPGTGPVINKGCLRATSCGLEEPVSYRGVTYSLTTNCCTGRLCNRAPSSQTVGATTSLALGLGMLLPPRLL [Q8TDM5]”: the “percentage of EdU-negative” value with MCF7 (setting [4]) turned out to be 27.6 ± 0.57%; in the data set on MCF7 (protein concentration 0.225 µM) it was 25.47 ± 0.088%; with hTERT-HMEC (setting [4]), 4.81 ± 0.12%; in the data set on hTERT-HMEC (protein concentration 0.225 µM), 5.43 ± 0.73%.

“MVLLLLVAIPLLVHSSRGPAHYEMLGRCRMVCDPHGPRGPGPDGAPASVPPFPPGAKGEVGRRGKAGLRGPPGPPGPRGPPGEPGRPGPPGPPGPGPGGVAPAAGYVPRIAFYAGLRRPHEGYEVLRFDDVVTNVGNAYEAASGKFTCPMPGVYFFAYHVLMRGGDGTSMWADLMKNGQVRASAIAQDADQNYDYASNSVILHLDVGDEVFIKLDGGKVHGGNTNKYSTFSGFIIYPD [Q86Z23]”: the “percentage of EdU-negative” value with MCF7 (setting [5]) stood at 23.6 ± 0.38%; in the data set with MCF7 (protein concentration 0.125 µM), 27.2 ± 2.1%; with hTERT-HMEC (setting [5]), 4.79 ± 0.17%; in the data set with hTERT-HMEC (protein concentration 0.125 µM), 6.46 ± 0.13%.

Consider “MVLLRVLILLLSWAAGMGGQYGNPLNKYIRHYEGLSYNVDSLHQKHQRAKRAVSHEDQFLRLDFHAHGRHFNLRMKRDTSLFSDEFKVETSNKVLDYDTSHIYTGHIYGEEGSFSHGSVIDGRFEGFIQTRGGTFYVEPAERYIKDRTLPFHSVIYHEDDINYPHKYGPQGGCADHSVFERMRKYQMTGVEEVTQIPQEEHAANGPELLRKKRTTSAEKNTCQLYIQTDHLFFKYYGTREAVIAQISSHVKAIDTIYQTTDFSGIRNISFMVKRIRINTTADEKDPTNPFRFPNIGVEKFLELNSEQNHDDYCLAYVFTDRDFDDGVLGLAWVGAPSGSSGGICEKSKLYSDGKKKSLNTGIITVQNYGSHVPPKVSHITFAHEVGHNFGSPHDSGTECTPGESKNLGQKENGNYIMYARATSGDKLNNNKFSLCSIRNISQVLEKKRNNCFVESGQPICGNGMVEQGEECDCGYSDQCKDECCFDANQPEGRKCKLKPGKQCSPSQGPCCTAQCAFKSKSEKCRDDSDCAREGICNGFTALCPASDPKPNFTDCNRHTQVCINGQCAGSICEKYGLEECTCASSDGKDDKELCHVCCMKKMDPSTCASTGSVQWSRHFSGRTITLQPGSPCNDFRGYCDVFMRCRLVDADGPLARLKKAIFSPELYENIAEWIVAHWWAVLLMGIALIMLMAGFIKICSVHTPSSNPKLPPPKPLPGTLKRRRPPQPIQQPQRQRPRESYQMGHMRR”, for which the “percentage of EdU-negative” value in the data set on MCF7 (setting [6]) stood at 24.8 ± 1.8%; in the data set on MCF7 (setting [7]), 26.2 ± 1.3%; in the data set on hTERT-HMEC (setting [6]), 6.02 ± 1.1%; in the data set with hTERT-HMEC (setting [7]), 6.36 ± 1.3%.
